# Measured values reported in the nanobody polyreactivity screen of Harvey et al. (2022).
# Assay: yeast display, Sf9 membrane polyspecificity reagent, FACS + sequencing; frameworks hold sequencing errors
# Procedure, shortened: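 Sorting gates, low and high (top ~1%), were placed on anti-HA fluorescence to track expression and on streptavidin fluorescence to track reagent binding. A clone's polyreactivity label is taken from the gate it came out of. The reagent was 10% biotinylated, detergent-solubilized Sf9 membrane, applied for 1 hour at 4 °C to galactose-induced yeast display cells.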
row,Sequence,polyreactivity (PSR sort gate)
1,QVQLVESGGGLVQAGGSLRLSCADSGRIFPQYTMGWYRQAPGKERELVAGISYGGVSTYYADSVKGRFTISRDNAKNTVYLHMNSLKPEDTAVYYCARPYGYRGYLRYYWGQGTQVTVSS,high polyreactivity
2,QVQLVESGGGLVQAGGSLRLSCAASGSTLRAYAMGWYRQAPGKERELVAGITSGGRTNYADSVKGRFTISRDNAKNTVYLQMNSLKPEDTAVYYCATDRFSHYYFLYDYWGQGTQVTVSS,low polyreactivity
3,QDQLVESGGGLVQAGGSLRLSCAASGFTIQAYAMGWYRQAPGKERELVATISKSGGRTYYADSVKGRFTISRDNAKNTVYLQMNSLKPEDTAVYYCNKRVSGRHYDYWGQGTQVTVSS,high polyreactivity
4,QVQIVESGGGLVQAGGSLRLSCAASGLTFEWYTMGWYRQAPGKERELVAVITVSGSSTYYADSVKGRFTISRDNAKNTVYLQMNSLKPEDTAVYYCNADWSFYSYTLYDYWGQGTQVTVSS,low polyreactivity
5,QVQLVESGGGLVQAGGSLRLSCAASGSILRRYAMGWYRQAPGKEREFVAAISYSGSRTYYADSVKGRFTISRDNAKNTVYLQMNSLKPEDTAVYFCAADSYGSRYEYWGQGTQVTVSS,high polyreactivity
6,QVQLVESGGGLVQAGGSLRLSCAASGRTFRANAMGWYRTAPGKEMELVAAISQRGGNTYYADSVKGRFTISRDNAKYTVYLQMNSLKPEDTAVYYCAADITTYRRGRYEYEFWGQGTQVTVSS,high polyreactivity
7,QVQLVESGGGLVQAGGSLRLSCAASGFTFDYNAMGWSRQAPGKERELVAAISYSDDSTYYADSVKGRFTISRDNAKNTVYLQMNSLKPEETAVYYCAAYFGAYGYDYWGQGSQVTVSS,low polyreactivity
8,QVQLVESGGGLVQAGGSLRLSCGASGSTFGTYAMGWYRQAPGKERELVAAISWSGGSTYYADSVKGRFTISRDNAKNTVYLQMNSLNPEDTAVYWGQGTQVTVSS,low polyreactivity
9,QVQLVESGGGLVQAGGSLRLSCAPSGRIFLPYAMGWYRPAPGKEWELVAGISSGGSTKYADSVKGRFTISRDNAMNTVYLQMNSLKPEDTAVYYCNRRFPIYCSRFGYYYWGQGTQVTVSS,high polyreactivity
10,QVQLVESGGGLVQAGGSLRLSCAASGRIFGRYAMGWYRQAPGKERELVAVISSGGSTYYADSVKGRFTISRDNAKNTVYLQMNSLKPDDTAVYYCAAVIRGGYDYWGQGTQVTVSS,low polyreactivity
11,QFQLVESGGGLVQAGGSLRLSCAASGSTSYRNAMGWYRQAPGKEREFVAAISWSGGSTYYADSVKGRFTISRDNAKNTVYLQMNSLKPEDTADYYSNADAYGTPEFTSYAVRYDYWGQGTQVTVSS,low polyreactivity
12,QVQLQESGGGLVQAGGSLRLSCAASGDNLEADDMGWYRQAPGKERELVASITDGGSTNCADSMKGRSTICRDNAKITVYLQMNSLKLEDTAVYYCAAIAYPDVPTYFDYDSDYFYWGQGTLVTVSS,high polyreactivity
13,QVQLVESGGGLVQAGGSLRLSCAASGYIFRGYVMGWYRQAPGKERELVAGISRSGSSTYYADSVKGRFTISRDNAKNTVYLQMNSLKPEDTAVYYCAAVRSGIEYGYWGQGTQVTVSS,high polyreactivity
14,QVHLVESGGGLVQAGGSLRLSCAASGSIFPYNVMGWYTQAPGTERELVAAISTRGGRTYYADSVKGRFTISRDNANNTVYLELNSLKPEDTAVYDCATAGGPYSDYGYYWGQGTQVTVSS,high polyreactivity
15,QVQLVESGGGLVQAGGSLRLSCAASGRLSDNVMGWYRQAPGKERELVAAISSSGGTTYYADSVKGRFTISRDNAKNTVYLQMNSLKPEDTAVYYCNARTRGKMDYWGQGTQVTVSS,high polyreactivity
16,QVQLVESGGGLVQAGGSLRLSCAASGRTFGVYAMGWSRQAPGKERELVAGIRWRGGSTYYADSVKGRFTISRDNEKKTVYFQMNSLKPEETAVYYCAADVYLVKYDYWGQGTQVTVSS,low polyreactivity
17,QVQLVESGGGLVQAGGSLRLSCAASGFTFTYYVMGWYRQAPGKERELVAAITSSGGRTYYADSVKGRFTISRDNAKNTVYLQMNSLKPEDTAVYYCNKGPLPGYDYWGQGTQVTVSS,high polyreactivity
18,QVQLVESGGGLVQAGGSLRLSCAASGSTFYVYVMGWYRQAPGKERELVAVIDWRGGSTYYADSVKGRFTISRDNAKNTVYLQMNSLKPEDTAVYYCNKDAQFYYKLPYYKERDWGQGTQVTVSS,low polyreactivity
19,QVQLVESGGGLVQAGGSLRLSCAASGSIFRAYAMGWYRQAPGKERELVAAINWTDGSTYYADSVKGRFTISRDNAKNTVYLQMNSLKPEDTAVYYCAKDSIARHNYWGQGTQVTVSS,low polyreactivity
20,QVQLVESGGGLVQAGGSLRLSCAASGSIFWSYAMGWYRQAPGKERELVASITRSGGSTYYADSVKGRFTISRDNAKNTVYLQMNSLKPEDTAVYYCNARRTTRWGSSKYEYDYWGQGTQVTVSS,high polyreactivity
21,QVQLVESGGGLVQAGGSLRLSCAASGSTFYIYAMGWYRQAPGKERELVAAINSGGGTNYADSVKGRFTISRDNAKNTVYLQMNSLKPEDTAVYYCAKTFYSLYWGQGTQVTVSS,low polyreactivity
22,QVQHVESGGGLVQAGGSLRLSCAASGSTFKHNAMGWSRQAPGKERELVAGISWGGSSTYYADSVKGRFTISRDKAKNTVYLQMNSLKPEDTAVYYCAKGGYRRYGYDYWGQGTQVTVSS,low polyreactivity
